Experimental data published in publication PMC4624963, “Enzymatic Characterization of Recombinant Food Vacuole Plasmepsin 4 from the Rodent Malaria Parasite Plasmodium berghei” (PLoS ONE, 2015).
Where no end group is shown, it is not given here.

B1: compound 7 (KPFELΨAWT), peptidomimetic inhibitor designed for PmPM4 (peptide)
peptide: KPFELAWT
modifications: not fully specified (residue 5); printed as KPFELΨAWT; also: Ψ pseudopeptide bond between L5 and A6
B2: compound 5 (KPLEFΨFRV), peptidomimetic inhibitor designed for PvPM4 (peptide)
peptide: KPLEFFRV
modifications: not fully specified (residue 5); printed as KPLEFΨFRV; also: Ψ pseudopeptide bond between F5 and F6
B3: compound 1 (KPYEFΨRQF), peptidomimetic inhibitor designed for PbPM4 (peptide)
peptide: KPYEFRQF
modifications: not fully specified (residue 5); printed as KPYEFΨRQF; also: Ψ pseudo-peptide bond between F5 and R6
B4: compound 6 (KPLEFΨYRV), peptidomimetic inhibitor designed for PoPM4 (peptide)
peptide: KPLEFYRV
modifications: not fully specified (residue 5); printed as KPLEFΨYRV; also: Ψ pseudopeptide bond between F5 and Y6
B5: compound 4 (KPVEFΨRQT), peptidomimetic inhibitor designed for PfPM4 (peptide)
peptide: KPVEFRQT
modifications: not fully specified (residue 5); printed as KPVEFΨRQT; also: Ψ pseudopeptide bond between F5 and R6
B6: compound 2 (KPFSLΨLQF), peptidomimetic inhibitor designed for PfPM1 (peptide)
peptide: KPFSLLQF
modifications: not fully specified (residue 5); printed as KPFSLΨLQF; also: Ψ pseudopeptide bond between L5 and L6

What was measured:
[1] = target: mature plasmepsin 4 of Plasmodium berghei (PbPM4), auto-matured from semi-proPbPM4 (Plasmodium berghei ANKA); assay: enzyme inhibition kinetics (Ki of competitive inhibition); initial cleavage velocities of a chromogenic peptide substrate at varied inhibitor concentration, spectrophotometric; proPbPM4 pre-incubated in 100 mM sodium citrate pH 5.0, 37°C, 5 min; tight-binding or non-tight-binding competitive fit
[2] = target: human cathepsin D (human) (UniProt P07339); assay: enzyme inhibition kinetics (Ki of competitive inhibition); initial cleavage velocities of a chromogenic peptide substrate at varied inhibitor concentration; hcatD pre-incubated in 200 mM sodium formate pH 3.7, 37°C, 5 min
[3] = target: plasmepsin 4 from Plasmodium vivax (Plasmodium vivax); assay: enzyme inhibition kinetics (Ki of competitive inhibition); initial cleavage velocities of a chromogenic peptide substrate at varied inhibitor concentration; plasmepsins pre-incubated in 100 mM sodium formate pH 4.5, 37°C, 5 min to convert zymogen to mature enzyme
[4] = target: plasmepsin 4 from Plasmodium malariae (Plasmodium malariae); assay: as above
[5] = target: plasmepsin 4 from Plasmodium ovalae (P. ovalae); assay: as above

Binder	Ki [1]	further results
B1	8100 nM	–
B2	1.4 nM	–
B3	3900 nM	Ki [2]: 41 µM; Ki [3]: 426 nM; Ki [4]: 445 nM; Ki [5]: 1900 nM
B4	0.12 nM	–
B5	502 nM	–
B6	379 nM	–
